Experiment: label from the status in PepcDB records

Sequence | protein production
MLAALEVAVPALYAVAIVVLTAYGGNLLWLALVHAASERLRDGPVPDPDDLPVPDDDWPVVTVQLPLYNEAEVAHRLIDACVQLDYPRSRLDIQVLDDSTDATTERVARRVAHWQAEGVNITHVRRDDRTGYKAGALANGLQRARGDLIAIFDADFVPRPSFLRRLVPRFFDAPDLGMVQARWGHLNRDDSLLTKVQAFGLDAHFAIEQRVRELAGCFLNFNGTAGVWRRACIEDAGGWAHDTLTEDLDLSYRAQLQGWRLTYVPAAEAPAELPPDMNALRAQQFRWAKGGAETALKLTGRLWRSAQPWRVKLEGTFHLTAHFAFPFILLAALTHAPLLLLKGIGHGPGEVYFAVMGFGLFGFAGFFLAQLFAQRALHPDWRRRLRLFVPFMAGTMGLSLSNTSAVWQALRGTDTAFIRTPKVGSAGGDGWWESRYAIREVPRIVWGELALAVYSTVGLGVVIGLGEWAAVPFQALFALGFALVTASSLRQALTAQQGPTASAPASSPAA | failed
MLAALFSIAAVFGFHAEDEPYIVTLPWYELFSSAAKAVAGTIHNPFGLFGARVSVFFIRVLLGYPSVMPLFGFLVLGWHLFRAKPLGPGLFFLVYTLLMALDLSAMFGLSMLPLADLMSGATGRMMASFLSTVIGYPGAWALTAIIAAVLTFYMGRDFIVDTIAGVSGFFGKLLATVQAIRAERHRKRREKEEMRVRKKAERMAAVLEKEQRKRDKKAQRARKAGDASKQKAAPFENSPETPAPVMDVEPAPPLLNPAVSEPVVIPAEVEEIRTPEPAPVRPEEGPEMIIKPGVQEAEADLDERALKVRTHDHVKYRFPSIDLLRRPKDEDESYDERHLAETKDRLLEKLRIYKIDVIRIATTVGPRVALFELELAPEVKISRIKSLENDLAMAMASSSGGIRIIAPIPGKNAIGVEIPISKPRPVVMRSVLQVEKFKNNSMALPIVLGKSISNEVIVDDLAAMPHLLIAGATGAGKSVAINVLLTSLLYSKKPDEVKFVLIDPKRVELKPYKLLKDHFLPKIPGMEEQIIVTDPQKAVSALRSVVREMEHRYELLEQCGVRNIGEYNRKMKDEAMFYLVVVVDELADLMITAGREVEEPITRLAQMARAVGIHLIVATQRPSVDIITGIIKANFPSRIAFQVASKVDSRTILDVSGAEQLLGSGDMLFQSAKMSKPQRIQCPYISLSEVDAITEFIGQQPPLRAECMLPEPPSSSGNGSSSGFDQDRGRRDSMFEEAARLVVMHQQASVSLLQRRLRLGFSRAGRVMDQLEQSGIVSAGDGSKPREVLVKNEDSLELLLRNLD | failed
MLAELFAVMAPVLFGAGVGYVWVRLGHAYPTEFVSRIVFNIGSPCLILATLAHTRVDLHSFGRMALASALICVCMAALGWAAARLGRQEWQVLVPAYSFPNVGNMGLPVCLYAFGEAGMTLAVAFYLIMSIGNFSLGVFWMSGERSWRSLLGNPILLSVLLALLLMGLDLQLPRWMANTVDLMAGLTIPLMLITLGVSLASIRPRQLGNGFFYGGLRLLLGALVGWSVALALQLPPLAQGVLVVQSSMPVAVFNYLYALRGNRSPDQVASLVLCSTLLSFAFIPLLLTWWLPALR | failed
MLCACSGEQFRFEDQPGSPESLATRDFSASGLSSRNGGGDWDSKLEDIQVDEAESTLKEALSLNYEEARALLGRLEYQRGNFDAALQVFKGIDIKVLTPRIIKAIVEKTLPCKPRSKAVIVPPTTMSMHSVSLLLEAILLKARSLEELGSYKEAAEECKIILDVVENALPSGMPDGISGFAKLQDIFQKALELLPLLWKKAGNHHETIASYRRALSRPWNLDPQRLAVTQKSLALVLLYGSVEACPKDNIEEAIVLLMLLVKKMVVGDIQWDPELMDHLTYALSMTGQFEVLANYLEQTLPGVYTRGERWYLLSLCYSAAGIDKAAINLLKMALGPSESRQIPHIPLLLFGAKLCSKDPKHSRDGINFAHRLLDLGNSQSEHLLSQAHKFLGVCYGNAARSSKLDSERVFLQKKSLFSLNEAAKRGKADPELDVIFNLSVENAVQRNVQAALDGAVEYSSMVGGVSTKGWKHLAIVLSAEKRLKDAESILDFTMEEAGDIEKIELLRLKAVLQMAQEQPKKAMKTCSSLLGLIRAQEKSEQSESLLQKFETEAWQDLASVYGKLGSWSDAETCLEKARSMCYYSPRGWNETGLCLEAKSLHEEALISFFLSLSIEPDHVPSIVSIAEVMMKSGDESLPTAKSFLMNALRLDPRNHDAWMKLGHVAKKQGLSQQAAEFYQAAYELELSAPVQSFI | failed
MLCLHAPSRCEAAPAFPHTYSHYSEQEQLTALLADFGRTQGLATSFSPGVTGTVSGRFEDVAPEKFLQGMKAAFGVSWYRLGPTLHFYHEAETTRIFISPRVMSAESLYRMLRQSSVLSPQLPAELMPGGAMVVVSGPPAYLDQIQAAVTAFEEAQTGNFGMKVFPLKYAWAEDITVNSMDKTVTLPGVASILRAMVSGSPSSATRVTQETATVDKLSGTGLISQGRQQKESGQSNQAQRGGQASQQDSGGAQDGQQVSIMADPRVNAVIVHDAVYRMPYYESVIGDLDRPVELVEIHAAIVDIDTNFKRDLGVTYQATVGKDQRWAGGADVSTGTDKFTPLPVPGVPQGSGLTLSTIYTMGSDYFLARINALEKNGEARMLGRPSVLTVDNVQATLENTSTYYIQVQGYQAVDLFKVEAGTVLRVTPHIINNDDGTDAIKLVVSVQDDQNNQTTPTSTSTTQAIPPIKQTKINTQAIIGAGQSLLIGGYYYEQKATSADGVPILMNIPVLGNLFKTQSKENKRMERLILITPKVVRLDNLPGTPPRVDDPAFHRTATQSDYAERTPTPPPSRRSGCSRAPDNAPEAASGAAGGTGGTGVTANTEGGTTPQAATSPVPAYGVAP | failed
MLDASPATARSPLEKRRPNVCREEQLTLVRLSRPCAQAFIDTIQFWKQGCSGPRWCVGYERRIRYYIIYRHVYATEHQTVFRCCPGWIQWDDEPGCFSSLSSLGTHFSGRECSYQDTRQCLCSQGFHGPHCQYDINECAVDNGGCRDRCCNTIGSYYCRCQAGQKLEEDGRGCEDVDECAVVNGGCQQRCINTLGTFHCECDTGYRRHADERTCIRIELEIVNICEKNNGGCSHHCEPAIGGAHCSCNHGHQLDTDGKTCIALDEQLEEEEEEIDILRFPGRLAQNPPQPFPYLDPSLTASYEDEDNDDADSEAEGEVQGLTALYRVVCLDGTFGLDCSLSCEDCMNGGRCQEGKSGCLCPAEWTGLICNESSVLRTGEDQQAPAGCLKGFFGKNCKRKCHCANNVHCHRVYGACMCDLGRYGRFCHLSCPRGAYGASCSLECQCVEENTLECSAKNGSCTCKSGYQGNRCQEGTIR | failed
MLDISFGEFVLIGVVALVVLGPERLPTVARTVGALVARAQRFVANVKADMQQQANLQGLDSLRQDLQDAAHSFRGQLEAEVQQVRDAIDQNAADARALAEQAAEPFHEAERTIHGGLAPDAEAEAREAETHPAEPAPAAQADVPPRDENQLDLFDDLPPHRPPASQPSASQARE | failed
MLDKLTVWIENHLAGPMAKIANQRHLRAVRDGIIATLPLIIVGSFFLIIAFPPLPESWGITQFLTSNAATILLPYRMTMYIMALYATFGIGASLAKSYNLDQVSGGILATIAFLLTLVPVAIPEEASKAAGVSGFVLPMANLGGAGMFVGIVTSIIAVEIYRVTDKSKFKITMPDNVPPAVARSFESLTPTLIVMLLIGSITYYLGFDWHTFVGNLVGPLVQAADSLLSVLLLVFLTTFFWFFGIHGASIVGSLARPLWLQLLEENTTAKAAGEALPRIAAEPFYQWFIWIGGAGATIGLAILLAFRAKSEYGSKLGKAILAPSIFNINEPVIFGVPIVLNPILMIPFIFAPMVLATIAWFATKLGLVSEVVFTAPWTLPGPIGAFMATGGDWRAAVLNIVLILVAILIYYPFFVAYDKNELAKEQGKQIEE | failed
MLDNLQLTDILATVAVLVSITFLIYFAGKTLITANSFQKGVSLYQQKDYPGAEAAFRKVIAINSTNDVVRLFLGDVLREQGKVAEATELFQEVINRSPKNPQGYLRLATILMQQEKQAEAKTNLQKAQELLQKQRQPETAKRVAKLLEQMNTKTI | failed
MLDTYGRKYVNPIIDLGANTLLKLRLTPNGVSIIALIIGVLSSVFLYFDKLILSVVFLWISGYLDSVDGAMARKKNLTSPFGTLLDITFDRIVELSIIFVLALKFQNSRLYLLILTMMILISMTIFLTVGALAQNNGMKSFRYQAGLAERSEGFICFSLMILLSSIKLNLVTNIFSLIIFITIIQRALEAKRLLK | failed
MLEAAQGAPASSGRRTRRPGLSEEVLRAYAYACAFCGYDGMLGRNPVGLEAAHIRWHSQDGPDTLANALALCALHHILFGLGVLGLSPGLRIQVSPLYVARSHAGHAVGILHRRPLAPPRPGHPSPGPEHIHWHHQQVFKHAPTPVAR | failed
MLEACTKCGTCAEACTMYLGSGRKKIYSPVYRSDMLRKIYKKHFTLTGKLFGPLIGAKDPTEDDINALAESAYRCTVCRRCALACPFGLDNGLITRETRKIFADLGILEHHHHHH | failed
MLEGIYLALDKMFGPMLRNTHPMWVVTVSGVILGAFFVLLNYFLVDQEKMKRLQKMAKELQEEFKKARESGDEKKLRKLQQKQLELLRLQNELMKDAFLKPMLITWPIIIIFWGWLKRWYFETAIVKYPFNFFLFDIFHKMYHSALKPDELGYFGWYFLTSYVVGTILRKVLDMA | failed
MLEGQLEAGEPKEGTHPEDPCPGAGAAMEKTPAAAEVPREDSNAGEMPSLQQQITSLHQELGRQQSLWADIHRKLQSHMDALRKQNRELREELRGLQRQQWEAGKKPAASPHAGRESHTLALEPAFGKISPLSADEETTPKYAGRKSQSATLLGQRWSSNHLAPPKVTLRAYRL | failed
MLEGVARPSLLRRLSCAPGMPAPVRRLAERIEGSHLATRLAEGAFWSFAGSALSRAFALAASVVTARFLGKAQYGELGVLLSTLLTFQAFASLGLGMTATKYVSELRTKDPERAGRILGMSAVLSAATGVLAAALLWAFAPWLASSTIGAPHLTEPLRIAGLGLVFTTMGGAQTGALAGFEAFRTQTQLNVWLGLLGVPIAVVGVWRWGLQGAVWATVVTAALQWALTHVAVRVHARRDRVPVSPRGWWREQRILWTFSLPALAQGVMVGPVSWAAAAILVNQPGGYPEMGAFSAANQWYAAVLFLPNALCGPVLPVLSERVGRGDGPGVRAVLRAAVAMNAAAVIPIVAAGCLASPWLVRIYGPQFADAWPTFAVVLITAGIVAITNPVGYVLAASERLWLGFLMNSGWAAAFLVATVLLVGWGSLGLATGRLLAYALHFGWTLWFAMRFVRAGAARGT | failed
MLEIMLMVCIGALAAVMANLGIAVFNDGIRPIVPENLEGRMTRKELGVTAFAMSFGLVIGFGIPISIAGSIILIHSILLGSDIIGLALDRGKVKTTIAAIIGGLYGAGIYMGLQVVVDLFTMLPLNFVDAFNKVGDPVVVSFMVFPAIAIALQFGVKKGIIAFAIAAFARQLIVFTNGAELIKIGSTPVVLSPEGIALVVGMFLLIFFAMREKSEETNLSTLATLFTDRVARIKKHRWILMLSGGLVAAATNLLLIAGDPISLNLLAEGKMSEGGIAALAKAIGFVPLIASTAIATGVYGPIGFTFVFAAGIFAPNLGIALLIGALIIFLEIQLLTKLATFLDRYPGIRASGENIRTAMSRVLEVALLIGGANAADAIVPGFGFFAIAGFYLINEIAGRPIVRMAIGPVGAIIVGIVGNLLVLLGLYTP | failed
MLELFLKEEWTTEAKEILRPFGQKKLIGIQMGASNRSRQWFVERWIELAKRIIERDEEVVIVFVGSKNELEEISLVAQALPQDRVFISAGRLSLGAAAALIGELGLLFTPDTGPLHIAVALRVKTISLFAVANPKNSLPDYDQSLHRYIKVDRCCEPCVGKRCAYQKCMEAIGVDEVYEEYKKLQELEHHHHHH | not failed
MLELKNENLTVQFSELGGQIISIKDKDGIEYLWQGEPTYWSGQAPVLFPICGSLRNDWAIYEPAERPTFTGTIPRHGLVRKMLFKNVKSTENSLEFSISSNEETVKNYPFEFELSINYSLFGKTIRIEYRVKNLEGHRKLPYFIGGHPGFNCPLLDGESYEDYYLEFEKVESCTVPRSFPETGLLDLRDRRPFLENQKTLDLSYKLFEYDAITLDQLASRKVTLKSKNHQKKLSIAFDDFPYLVIWSTTNQSPFIALEPWSGLSTSLEESDIFNAKRNISYVAPKEVDTKYFDIIIE | failed
